These results are taken from paper PMC3963500.

This data set concerns the target PDGF-BB (UniProt P01127 82-190). Description: microcantilever deflection.

PDGF-BB, sequence (P01127 82-190): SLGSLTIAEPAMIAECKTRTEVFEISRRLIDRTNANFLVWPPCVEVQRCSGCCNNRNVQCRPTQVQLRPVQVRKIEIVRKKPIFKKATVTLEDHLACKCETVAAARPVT

B1: PDGF aptamer (thiolated) (structured_DNA)
DNA: CACAGGCTACGGCACGTAGAGCATCACCATGATCCTGTG
modifications: thiol (HS-aptamer; printed as 3'T after the sequence), immobilized on Au-coated cantilever
Regarding B1, the binding result was “binds”.
